{"source": "patent US20040077045A1", "about": "(LUDWIG INSTITUTE FOR CANCER RESEARCH, published 2004)", "binders": {"B1": {"name": "peptide MAGE-3 267-282 (ACYEFLWGPRALVETS) (peptide)", "peptide": "ACYEFLWGPRALVETS"}}, "key": {"[1]": {"target": "T1, HLA-DR7 (DRB1*0701), purified (human)", "T1 construct": "mature", "test": "competition on purified HLA-DR (DRB1*0701); ratio to reference peptide YKL"}, "[2]": {"target": "T2, HLA-DR1 (DRB1*0101), purified (human)", "T2 construct": "mature", "test": "competition on purified HLA-DR (DRB1*0101); ratio to reference peptide HA 306-318"}, "[3]": {"target": "T3, HLA-DR4 (DRB1*0401), purified (human)", "T3 construct": "mature", "test": "competition on purified HLA-DR (DRB1*0401); ratio to reference peptide HA 306-318"}, "[4]": {"target": "T4, HLA-DR11 (DRB1*1101), purified (human)", "T4 construct": "mature", "test": "competition on purified HLA-DR (DRB1*1101); ratio to reference peptide HA 306-318"}, "[5]": {"target": "T5, HLA-DR15 (DRB1*1501), purified (human)", "T5 construct": "mature", "test": "competition on purified HLA-DR (DRB1*1501); ratio to reference peptide A3 152-166"}, "[6]": {"target": "T6, HLA-DRB5 (DRB5*0101), purified (human)", "T6 construct": "mature", "test": "competition on purified HLA-DR (DRB5*0101); ratio to reference peptide HA 306-318"}, "HLA-DRB4, purified [7]": {"target": "HLA-DRB4, purified (human)", "test": "competition on purified HLA-DR (DRB4); labelled peptide not named; fluorescence assay"}, "HLA-DRB4, purified [8]": {"target": "HLA-DRB4, purified (human)", "test": "competition on purified HLA-DR (DRB4); ratio to a reference peptide that is not named"}, "[9]": {"target": "T1, HLA-DR7 (DRB1*0701), purified", "test": "competition on purified HLA-DR (DRB1*0701) against biotinylated YKL (10 nM, pH 5); fluorescence assay"}, "[10]": {"target": "T2, HLA-DR1 (DRB1*0101), purified", "test": "competition on purified HLA-DR (DRB1*0101) against biotinylated HA 306-318 (1 nM, pH 6); fluorescence assay"}, "[11]": {"target": "T7, HLA-DR3 (DRB1*0301), purified (human)", "T7 construct": "mature", "test": "competition on purified HLA-DR (DRB1*0301) against biotinylated MT 2-16 (100 nM, pH 4.5); fluorescence assay"}, "[12]": {"target": "T3, HLA-DR4 (DRB1*0401), purified", "test": "competition on purified HLA-DR (DRB1*0401) against biotinylated HA 306-318 (30 nM, pH 6); fluorescence assay"}, "[13]": {"target": "T4, HLA-DR11 (DRB1*1101), purified", "test": "competition on purified HLA-DR (DRB1*1101) against biotinylated HA 306-318 (20 nM, pH 5); fluorescence assay"}, "[14]": {"target": "T8, HLA-DR13 (DRB1*1301), purified (human)", "T8 construct": "mature", "test": "competition on purified HLA-DR (DRB1*1301) against biotinylated B1 21-36 (200 nM, pH 4.5); fluorescence assay"}, "[15]": {"target": "T6, HLA-DRB5 (DRB5*0101), purified", "test": "competition on purified HLA-DR (DRB5*0101) against biotinylated HA 306-318 (5 nM, pH 5.5); fluorescence assay"}, "[16]": {"target": "T5, HLA-DR15 (DRB1*1501), purified", "test": "competition on purified HLA-DR (DRB1*1501) against biotinylated A3 152-166 (10 nM, pH 4.5); fluorescence assay"}, "[17]": {"target": "T9, HLA-DRB3 (DRB3*0101), purified (human)", "T9 construct": "mature", "test": "competition on purified HLA-DR (DRB3*0101) against biotinylated LOL 191-210 (5 nM, pH 5.5); fluorescence assay"}}, "data": [{"binder": "B1", "values": [{"measurement": "Ratios IC50 MAGE-3/IC50 reference", "setting": "[1]", "value": 120}, {"measurement": "Ratios IC50 MAGE-3/IC50 reference", "setting": "[2]", "value": 0.2}, {"measurement": "Ratios IC50 MAGE-3/IC50 reference", "setting": "[3]", "value": 18}, {"measurement": "Ratios IC50 MAGE-3/IC50 reference", "setting": "[4]", "value": 6}, {"measurement": "Ratios IC50 MAGE-3/IC50 reference", "setting": "[5]", "value": 15}, {"measurement": "Ratios IC50 MAGE-3/IC50 reference", "setting": "[6]", "value": 11}, {"measurement": "IC50", "setting": "HLA-DRB4, purified [7]", "value": 2800, "unit": "nM"}, {"measurement": "Ratios IC50 MAGE-3/IC50 reference", "setting": "HLA-DRB4, purified [8]", "value": 70}, {"measurement": "IC50", "setting": "[9]", "value": 1200, "unit": "nM"}, {"measurement": "IC50", "setting": "[10]", "value": 0.4, "unit": "nM"}, {"measurement": "IC50", "setting": "[11]", "value": "> 10000", "unit": "nM"}, {"measurement": "IC50", "setting": "[12]", "value": 730, "unit": "nM"}, {"measurement": "IC50", "setting": "[13]", "value": 150, "unit": "nM"}, {"measurement": "IC50", "setting": "[14]", "value": "> 10000", "unit": "nM"}, {"measurement": "IC50", "setting": "[15]", "value": 170, "unit": "nM"}, {"measurement": "IC50", "setting": "[16]", "value": 220, "unit": "nM"}, {"measurement": "IC50", "setting": "[17]", "value": "> 10000", "unit": "nM"}]}]}
